The results in this text go back to the DeepSol protein solubility set.

A short description of the series: soluble on expression in E. coli; label from the status in PepcDB or PDB records.
As to “MFSPSKFRKQVNESESVSNCESTTSNSRRILDQHAGLPISSAFRTEASDIGHHFSTKMYFKILSPNNVFALMGDNEFKTSFKIFTIFEPTSTPNGKIQSLITISYKINNVLFKMEKEIFIEKVNIFSLELHIFNFQSTNRSNPASESIHQLDLSSEALVTSTLNIRGNKITTTLRPRTSPYKRAGDASMSREDLRSPDSVSTFTTVLHVFHKVFQVAATYTIRENRSERQTKVKLESLERRLKANEKARKEIEAEAEKWKDRATRNSKRLPELELELAETVQAKEEWQVKSQEMEIQNKQLVEELNEVQKKLEEIENSQKTFHQKVVSTLNLDEEYFQNPDEEQDGSLSQFNMDVLEQEIVKYQEKCISLKQENEILKEKLQQLSSSLTVNQNHVSTLMDHLEINKEQSREIQGICKKEIAIRQDHENRINHDVTLLNSLINEQKMELEMLKAEIRCLRSYSQEMSQSNKNNIILLKSAETERKSLLETLTVLLNSEEEATENNVKRTIRDLVRERDTEQTKRFEAEKAASNAEGVLLEQAKQQRNALFRARVSEEEYSKSMEKIEELEQELLASDLERKNLEHKIASLENCISKVSQLLNVNVGGVFDAIFDRIEELIAQESVYRVVVNENRLISENIFRGLQSVRKDFQSGKSGGGSDKKQPASPVAAAAKIIQERHTLKTIDKMDKLNKDLLATMTIETLKAADIEKTNLKKRMNEQDARIRQLEREKKEGERIRSIIAKWEKRNIPKTEKSSPMKKVPPIENFRAKSQTSITGLSPVL”, the “soluble on expression in E. coli” value is “not soluble”.
The entry for “TGCSVTATRAEEWSDGFNVTYSVSGSSAWTVNLALNGSQTIQASWNANVTGSGSTRTVTPNGSGNTFGVTVMKNGSSTTPAATCAGS” is “soluble”; for “MGSDKIHHHHHHMEINVGAVISANRKQKGITQQALADFVGVSKASVSKWETGQSYPDITLLPILAAYFDVSIDKLMAYDAQLSSTEIRRIYTSMKQAFETQPGDAVLKSIRNLIRRYYACYPFLLQMGLLILNHYDLLPGTSQTAKVTEYVNEARLLFVRVRQNSQKAQLTAKAVELEGYSLLLLQRPDDVLALLGEYVPEQLPADSLIAGAFQQKGDFRRAIATSQSGLMQDLSIIMSQLTNYMTLLKDDPNRLAATYQRGQAIAKAFDLATLNPAVWLNFQLAALNGFAQQDKTDEAVALLQEFTHVLTATKMPLTLHGDAYFDAIEPWLEQLDLGSQSPRVSGQAKQVLADFVLQNPALAKIRTLPVVQPLLAELKQVSGHR” it is “not soluble”; for “MEITRLLTLYYEATPDPQNPLEGVRFGTSGHRGSSLKATFTEAHVLAIAQAIAELRPSFGATGPLFLAKDTHALSEPAWATALSVFAAHGIEVRVEADGDYTPTPLVSLAILEHNAHHEAKADGVLLTPSHNPPEDGGFKYNPPTGGPANARITRAIEERANALLQEGLKGVKRLPLREALARAKPFDYAGLYVEKVAEAVDLEAIRASGLRIGVDPLGGASLRVWERLAESHGLPLEVVNPTLDPTFRFMPKDHDGKIRMDCSSPYAMAGLLALKDRFDLAIGNDPDADRHGIVTPRGLMNPNHYLAAALHHLYTTRSWPGAKVGKTAVTSALLDRVAQALGREVYETPVGFKHFVAGLLEGWLGFAGEESAGASFLRFDGRPFSTDKDGILMGLLAAELMAKRGQAPDALYEALAEKLGRPYYARKDLPVSPEAKARLARLSAKEVHPSTLAGEPVLQVLDRATGNGEPLGGIKVVAANAWFAVRPSGTEDVAKVYAESFLGEAHLERVLEEATALLHKALA” it is “soluble”.
The entry for “SDAMDKRLKIATIGGGSSYTPELVEGLIKRYHELPVGELWLVDIPEGKEKLEIVGALAKRMVEKAGVPIEIHLTLDRRRALDGADFVTTQFRVGGLEARAKDERIPLKYGVIGQETNGPGGLFKGLRTIPVILDIIRDMEELCPDAWLINFTNPAGMVTEAVLRYTKQEKVVGLCNVPIGMRMGVAKLLGVDADRVHIDFAGLNHMVFGLHVYLDGVEVTEKVIDLVAHPDRSGVTMKNIVDLGWEPDFLKGLKVLPCPYHRYYFQTDKMLAEELEAAKTKGTRAEVVQQLEKELFELYKDPNLAIKPPQLEKRGGAYYSDAACSLISSIYNDKRDIQPVNTRNNGAIASISAESAVEVNCVITKDGPKPIAVGDLPVAVRGLVQQIKSFERVAAEAAVTGDYQTALVAMTINPLVPSDTIAKQILDEMLEAHKEYLPQFFKQAKATAGN” is “soluble”; for “MMFPAKIISLRGGATEAIVSADLDRKTELAQETATRWFERRLSLRSPLDPPLPERPGRPEKPELVPPTAVERRSLHSVKGRIALLHAIAHIELNAVDLALDIVARYASEPVPHSFFDGWMQVAFEEAKHFRLVRDRLVSLGADYGDLPAHDGLWQAAHSTRNDLTARLAVVPLILEARGLDVTPSLQAKMRETGDLESAAVLDVIYNDEKGHVAIGAKWFRFLCAREKKDPAATFRQLVRSNFRGPLKPPFNDLARAEAGLTPSFYRSLTSVSHSLEHHHHHH” it is “not soluble”; for “MNDITQLRQNVLEKAHQEGQQCLKIATDSLDTDFKERQQQGLHDLKAKRQKELKALEQQFQVAQQQLKNQERQALLALKQDSIKELFEASLEKMTNFSKEEELAFLKQVLSKYPEQPLQVTFGEKTGQKFSSYDCAELRLAFPQLSYNQELIPQEAGFLVSLDQVDDNYLYRYLLESVLKEESSRIIDMLFSEI” it is “not soluble”.
Next, “KDMFNTKSSNGKLRIEDASHNARKLGLAPSSTDEKKIRDLYGDSLTYEQYLEYLTMCVHDRDNMEELIKMFSHFDNNSSGFLTKNQMKNILTTWGDALTEQEANDALNAFSSEDRINYKLFCEDIL”: “soluble”; “MGSDKIHHHHHHMNLLSLYHFFAGKASDKQKEAIKRWAESSPDNYETLCREKKIFDAGILLVDKKELFQKENAPLLYKLINYTVKIAAVVLLVVVSVTIYKYQELVKKSEVLQTILVPAGQRINIILPDSTFVCLNSNTKFSYPSVFATNNRKVKLDGEAYFEVSANKNKPFYVHTSKGEIKVLGTHFNLEAYSNADVFKTSLFEGKVRVRVKGNNIYLKPDQMVCYHKNGKIHLETIHDYDQFRWREGLICIKSAKLKDIMKTFTKYFGDSIVIQNKEVEHYKYTGKFRQSRGVINALRLLQKDAPFTIEQDEDKQIIYIK”: “not soluble”; “METKQSMDYIIKGPGGTTKPIAPKLITVNPLNIIIESNSGQIDKTLELKNIYPCRIAFRVRTNGPTRYTVCPSKGFLSNGEKVAIQITLIDGTKYQSNHQFIVQAMPSPGDFADRKFIWKQPNFLGIFTNTRVKTMRPAQSLPKSNPKSPAKVSTPTDSGMSSPVASSESLVTPSVPSWSKSPSSPIDHGKFAENINDLSVQVKKAIDEKNTRTSEMVSVVNQIKAVEVDLDRQAQLVNELSERVKRGEIQYSNLVMHERSLRVELGRLKNNEAESIGQ”: “not soluble”.
For the sequence “MTLDVPVNQGHVPPGSVACCLVGVTAVADGIAGHSLSNFGALPPEINSGRMYSGPGSGPLMAAAAAWDGLAAELSSAATGYGAAISELTNMRWWSGPASDSMVAAVLPFVGWLSTTATLAEQAAMQARAAAAAFEAAFAMTVPPPAIAANRTLLMTLVDTNWFGQNTPAIATTESQYAEMWAQDAAAMYGYASAAAPATVLTPFAPPPQTTNATGLVGHATAVAALRGQHSWAAAIPWSDIQKYWMMFLGALATAEGFIYDSGGLTLNALQFVGGMLWSTALAEAGAAEAAAGAGGAAGWSAWSQLGAGPVAASATLAAKIGPMSVPPGWSAPPATPQAQTVARSIPGIRSAAEAAETSVLLRGAPTPGRSRAAHMGRRYGRRLTVMADRPNVG”, the “soluble on expression in E. coli” value is “not soluble”.
The entry for “MGSDKIHHHHHHMDLRQLPALNAIRAFEAAARHENFSRAADELFVTHGAVSHQVRALEEELGVQLFARNGKRLCLTGAGMRYAQQVRTALMMLADATREVRASDRDRRLVVSMLSSFAARFVTPRIGTFIERHPEIDVELQSTNNLTDFARDDVDLAIRFGFGNYPGLHVEPLFDEVFFPACAPTLNGGKLPQTPADLVHYNLLRSDDELWRPWFDAAGLDTLTEPKRGILYQDSSNLLLAAIEGQGIALVRRSLAVHDLLDGRLVRLFDIDGASPWHYFFVCPPPLLNAPRVQAFRAWMFEEVAQFKLLCDELDARRAAGKTPAECAQEGGWKGLRAQP” is “not soluble”; for “MNQLNGQQLNDIILVLQNFTHSTLKKDLISLNAFKKAELTCGILRIELSMPFVWQTGFEALQAEVEQQLKQITGASGVKWVLNYQIATLKRANNHPAVNGVKNIIAVTSGKGGVGKSTTSINLALALQAQGAKVGILDADIYGPSIPHMLGAQDQRPTSPDNRHITPIEAYGIQSNSIGYLMAEDNATIWRGPMASSALSQLLNETWWTDLDYLVIDMPPGTGDIQLTLSQQIPVTGAVVVTTPQDIALLDAIKGIAMFQKVAVPVLGVIENMSVHICQNCGHQEAIFGTGGASKVAEKYNTQLLGQLPLHIRLRQDLDAGTPTVVADPTHEISQAYLALAAKVAAELYWQGTVIPSEIMIREVK” it is “not soluble”; for “MRNKPFYLLCAFLWLAVSHALAADSTITIRGYVRDNGCSVAAESTNFTVDLMENAAKQFNNIGATTPVVPFRILLSPCGNAVSAVKVGFTGVADSHNANLLALENTVSAASGLGIQLLNEQQNQIPLNAPSSAISWTTLTPGKPNTLNFYARLMATQVPVTAGHINATATFTLEYQ” it is “not soluble”.
Next, “MKGAARLAPGRPSPAPAWETSDPYAAALRSGHGPLYLRRTDGWLLPLEVERWCARADAVDLDVLDRCEGAVLDVGCGPGRLVAELAARGRTVLGIDVSEAAVTRTVRLGGQSLRRSVFEPLPGEGRWDTVLLMDGNVGIGGDPRTLLGRVAALLAPGGLLIAETAGSDIDERAHVQVVDVTDGDAAGSPFPWARIGTPALLGHARDTGWRPAAQWTSGERRFVALRSSRSASSSAEPPNSTAVTSSQRARKPSADSPVTPWLEHHHHHH”: “not soluble”.
On to “MGSDKIHHHHHHMQKLLSVIPSVDKLIKQLAGIALIQQYGHQAFVAQARQVIDSLRQHILTHQSLPVDQPADNLLSLIATNLQQTQQIAMKKVFNLTGTILHTNLGRAIWSEAAITAASDAMRHHSALEFDIEAGKRSHRDNTISQLLCEITGAEAACVVNNNAAAVLLMLATFAKGKEVIVSRGELVEIGGAFRIPDIMQQAGCKLVEVGTTNRTHLKDYRAAINENTALLMKVHTSNYQIQGFTHSVSEQQLVELGQEVGLPVMSDLGSGSLIDMATFGLPAEPLVQQKVASGVALVTFSADKLLGGPQAGIIVGKKADIEALQAHPLKRVLRCDKVILAGLEATLRHYLLPDQLTTHLPTLSLLTQSIDHLRVKATRLQNSLSKRLDARYHLQIEQSLAQIGSGALPTERLASLAVTITAPTQRDLLQLEQQFKMLKYPIIGRFAEQKLWLDLRSVAQFDQLIEMLEEK”, for which the “soluble on expression in E. coli” value is recorded as “not soluble”.
Next, “MGSDKIHHHHHHMSLRKNLALGSSTVLLTAVLSGCVSLDERSTDTSTENVTTVTATLTSTAAAEPTTRTTVQSATEASTTAPVQCNLDPRTSDFGPYLAQSRTPVGELAGSADSVVQVPDWFYHFQMGDNGYDSCSKLSYVVLNGSNGDAERSTGTGAAIADVVVLFIDGHMVARPAPFEMKTVESVTRVSDSEIQVVYGHAGRSTAEGVTDYFTFNFFVDNGVLSGRGDLPEHIDTHMRLYLL”: “not soluble”.
